B1: CAR2, GPRC5D chimeric antigen receptor (CAR 2 (VL-VH)), expressed on human T cells (protein, part only; not given: CAR backbone and scFv linker, not shown: small tags and cut ends)
chain, part: SSELTQDPAASVALGQTVKITCQGDSLRRYFASWYQQKPGQAPTLVTYGKNRRPSGVPDRLSGSSSGDTASLTITGAQAEDEGDYYCNSRDRSGTVVFGGGTKLTVLEVQLVESGGGVVQPGRSLRLSCAASGFTFSSYAMSWVRQAPGKGLEWVSAISGSGGSTYYAGSVKGRFTISRDNSKNTLYLQMNSLRAEDTAVYYCARDLYGYRYYYYGMDVWGQGTMVTVSS
B2: CAR1, GPRC5D chimeric antigen receptor (CAR 1 (VL-VH)), expressed on human T cells (protein, part only; not given: CAR backbone and scFv linker, not shown: small tags and cut ends)
chain, part: SSELTQDPAASVALGQTVRITCQGDSVRTYYAGWYQQKPGQAPVLVIYGKNHRPSGIPDRFSGSTSGNTASLTITGVQAEDEADYYCNSRDSSANPVFGGGTKVTVLQVQLVQSGAEVKKPGASVKVSCKASGYTFTSYYMHWVRQAPGQGLEWMGWINPNSGGTNYAQKFQGRVTITADKSTSTAYMELNSLRAEDTAVYYCVRSKGRAARNYYYMDVWGKGTTVTVSS

Molecular target: G protein-coupled receptor class C group 5 member D (GPRC5D) on tumor cells (MM.1S, RPMI8226, NCI-H929) (human) (UniProt Q9NZD1)
Test: cell-based or functional assay

UniProt Q9NZD1, sequence (Q9NZD1 whole entry): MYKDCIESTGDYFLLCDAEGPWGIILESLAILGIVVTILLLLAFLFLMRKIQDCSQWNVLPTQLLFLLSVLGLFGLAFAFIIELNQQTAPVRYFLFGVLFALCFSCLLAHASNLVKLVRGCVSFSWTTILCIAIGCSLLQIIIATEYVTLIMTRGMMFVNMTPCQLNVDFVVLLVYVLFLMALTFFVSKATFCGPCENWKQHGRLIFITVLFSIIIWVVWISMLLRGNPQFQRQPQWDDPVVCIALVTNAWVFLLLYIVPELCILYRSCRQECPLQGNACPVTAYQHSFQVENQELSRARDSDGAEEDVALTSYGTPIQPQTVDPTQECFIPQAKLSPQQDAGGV

Binder	% survival of MM.1S-ffluc cells, luciferase cytotoxicity assay, 24 h, E:T 1:1 [%]	% survival of MM.1S-ffluc cells, luciferase cytotoxicity assay, 24 h, E:T 1:2 [%]	% survival of MM.1S-ffluc cells, luciferase cytotoxicity assay, 24 h, E:T 1:4 [%]	% survival of MM.1S-ffluc cells, luciferase cytotoxicity assay, 24 h, E:T 1:8 [%]	% survival of RPMI8226-ffluc cells, luciferase cytotoxicity assay, 24 h, E:T 1:1 [%]	% survival of RPMI8226-ffluc cells, luciferase cytotoxicity assay, 24 h, E:T 1:2 [%]	% survival of RPMI8226-ffluc cells, luciferase cytotoxicity assay, 24 h, E:T 1:4 [%]	% survival of RPMI8226-ffluc cells, luciferase cytotoxicity assay, 24 h, E:T 1:8 [%]
B1	< 5	15	35	85	3	10	25	50
B2	20	60	88		12	40	70	90
